# Reference: patent US20160208003A1 (AFFITECH RESEARCH, published 2016)
# Several values for one entry are separate records, joined by “and”; a condition that tells them apart may be missing. Equal entries are not always repeated. Where two headings read alike, the source gives them in different places.
# Legend:
# [1] = target: T1, human CC chemokine receptor 4 (CCR4) (human, UniProt P51679 1-360); assay: cell-based or functional assay
# T1 sequence (looked up): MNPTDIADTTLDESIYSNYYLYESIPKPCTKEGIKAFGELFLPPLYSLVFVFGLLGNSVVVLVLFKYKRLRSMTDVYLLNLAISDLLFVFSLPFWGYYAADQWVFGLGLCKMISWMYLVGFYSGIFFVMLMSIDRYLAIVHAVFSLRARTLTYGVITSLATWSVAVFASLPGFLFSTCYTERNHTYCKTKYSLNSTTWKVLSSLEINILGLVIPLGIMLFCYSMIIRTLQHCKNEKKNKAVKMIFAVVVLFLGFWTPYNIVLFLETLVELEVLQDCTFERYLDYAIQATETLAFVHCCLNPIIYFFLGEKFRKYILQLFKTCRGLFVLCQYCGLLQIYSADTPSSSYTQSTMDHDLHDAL
# [2] = target: T1, human CC chemokine receptor 4 (CCR4); assay: cell-based or functional assay; remark: listed apart in the source
# [3] = target: T1, human CC chemokine receptor 4 (CCR4); assay: cell-based or functional assay; remark: listed apart in the source
# [4] = target: T1, human CC chemokine receptor 4 (CCR4); assay: flow cytometry, IgG titration on CCR4+ DT40 cells; one site-specific binding fit (Prism); IgG titration on CCR4+ DT40 cells
# Procedure: (§1) The IgG forms of antibodies 17G, 9E and KM3060var using various CCR4⁺ cell types were used (see Example 2).
# (§2) For the flow cytometry experiments, the cells were harvested from the culture flasks, washed 2 times with PBS, re-suspended in PBS with 0.2% BSA and 0.09% NaN₃ and finally aliquoted 1×10⁵ cells per well into V-shaped 96-well plates (Greiner Bio-One, Frickenhausen, Germany). Cells were centrifuged at 400×g for 5 min and then incubated at 4° C. for 45 min with different antibody dilutions.
# (§3) After washing with PBS with 0.2% BSA and 0.09% NaN₃, the cells were stained with 10 μg/ml of RPE-conjugated goat anti-human IgG (AbDSerotec, Düsseldorf, Germany) for 30 minutes at 4° C. The stained cells were washed, re-suspended in 200 μl PBS with 0.2% BSA and 0.09% NaN₃ and transferred to a U-shaped 96-well plate (Corning, Schiphol-Rijk, The Netherlands) for acquisition on EasyCyte flow cytometer (Guava Technologies, Hayward, Calif., USA).
# [5] = target: T1, human CC chemokine receptor 4 (CCR4); assay: flow cytometry, IgG titration on CCR4+ HEK293T cells; one site-specific binding fit (Prism); IgG titration on CCR4+ HEK293T cells
# Procedure: as §1, §2, §3
# [6] = target: T1, human CC chemokine receptor 4 (CCR4); assay: flow cytometry, IgG titration on CCRF-CEM cells; one site-specific binding fit (Prism); IgG titration on CCRF-CEM cells (natural CCR4+ line)
# Procedure: as §1, §2, §3
# [7] = target: T1, human CC chemokine receptor 4 (CCR4); assay: competition flow cytometry on CCR4-transfected DT40 cells: unlabelled IgG against 6.8 nM biotinylated KM3060var IgG, streptavidin-RPE
# Procedure: To analyze the epitope binding of anti-CCR4 antibodies 17G, 9E and KM3060var, competition experiments were performed using flow cytometry. The binding of biotinylated antibodies to CCR4 transfected DT40-cells was challenged in the presence of different concentrations of non-biotinylated anti-CCR4 antibodies. The CCR4⁺ DT40 cells were harvested from culture flasks, washed 2 times with PBS, re-suspended in PBS with 0.2% BSA and 0.09% NaN₃ and finally aliquoted 1×10⁵ cells per well into V-shaped 96-well plates (Greiner Bio-One, Frickenhausen, Germany). Cells were centrifuged at 400×g for 5 min and then incubated at 4° C. for 3-4 hours with fixed amounts of biotinylated IgG and different concentrations of non-biotinylated antibodies. After washing with PBS with 0.2% BSA and 0.09% NaN₃, the cells were stained with 2.5 μg/ml of Streptavidin—RPE (BD Pharmingen, San Diego, Calif., USA) for 30 minutes at 4° C. The stained cells were washed, re-suspended in 250 μl PBS with 0.2% BSA and 0.09% NaN₃ and transferred to a U-shaped 96-well plate (Corning, Schiphol-Rijk, The Netherlands) for acquisition on EasyCyte flow cytometer (Guava Technologies, Hayward, Calif., USA). The results shown in FIGS. 10 A, B and C illustrate that the 17G and 9E antibodies have epitopes that are identical or at least overlapping.
# [8] = target: T1, human CC chemokine receptor 4 (CCR4); assay: flow cytometry, IgG titration on CCR4+ DT40 cells (2); one site-specific binding fit (Prism); IgG titration on CCR4+ DT40 cells, second experiment, DT40 (2)
# Procedure: as §1, §2, §3
# [9] = target: T1, human CC chemokine receptor 4 (CCR4); assay: flow cytometry competition on CCRF-CEM cells; unlabelled TARC titrated, competitor biotinylated TARC (ca. 20 nM)
# Procedure: (§4) The competition binding assays were performed with biotinylated MDC or biotinylated TARC on DT-40-CCR4+ and CCRF-CEM cells. DT40 and CCRF-CEM cells were cultured as described in Example 2. TARC and MDC were biotinylated using standard procedures. The biotinylation process causes some losses, so the concentrations of biotinylated MDC and TARC recited herein are approximate.
# (§5) The cells were harvested from culture flasks, washed 2 times with PBS (400×g, 5 min, 4° C.) and resuspended in PBS containing 0.2% BSA and 0.09% NaN3. 1×10^5 cells per well were aliquoted into V-shaped 96-well plates (Greiner Bio-One, Frikenhausen, Germany). Cells were centrifuged (400×g, 5 min, 4° C.) and resuspended in 50 μl IgG, single chain or unlabeled ligand (1:10 dilution series starting on 100/500/26, 4 μg/ml) mixed with a fixed concentration of biotinylated ligand (10 or 20 nM, see legend to FIG. 24). The cells were incubated for 2 hours at 4° C. and mixed with a pipette every 45 min. The cells were washed three times with 150 μl PBS with 0.2% BSA and 0.09% NaN3 and stained with 3 μg/ml streptavidin PE (BD Biosciences) for 45 minutes at 4° C. […] Apparent binding affinities (KD) were calculated according to the following equation derived from previously described methods (Kipriyanov et al, 1997b; Schodin & Kranz, 1993): […]
# [10] = target: T1, human CC chemokine receptor 4 (CCR4); assay: flow cytometry competition on DT-40-CCR4+ cells; unlabelled TARC titrated, competitor biotinylated TARC (ca. 20 nM)
# Procedure: as §4, §5
# [11] = target: T1, human CC chemokine receptor 4 (CCR4); assay: competition flow cytometry: unlabelled competitor against a fixed amount of biotinylated TARC; cell line not named on the sheet or in the legend
# [12] = target: T1, human CC chemokine receptor 4 (CCR4); assay: calculated from the IC50; CCRF-CEM cells, competitor biotinylated MDC
# Procedure: as §4, §5
# [13] = target: T1, human CC chemokine receptor 4 (CCR4); assay: calculated from the IC50; DT-40-CCR4+ cells, competitor biotinylated MDC
# Procedure: as §4, §5
# [14] = target: T1, human CC chemokine receptor 4 (CCR4); assay: flow cytometry competition on DT-40-CCR4+ cells; unlabelled MDC titrated, competitor biotinylated MDC (ca. 10 nM)
# Procedure: as §4, §5
# [15] = target: T1, human CC chemokine receptor 4 (CCR4); assay: competition flow cytometry on CCRF-CEM cells: unlabelled competitor against ca. 20 nM biotinylated TARC, without BSA, streptavidin-PE [c]
# Procedure: as §4, §5
# [16] = target: T1, human CC chemokine receptor 4 (CCR4); assay: competition flow cytometry on CCRF-CEM cells: unlabelled competitor against ca. 20 nM biotinylated TARC, with 1 % BSA, streptavidin-PE [d]
# Procedure: as §4, §5
# [17] = target: T1, human CC chemokine receptor 4 (CCR4); assay: competition flow cytometry on DT-40-CCR4+ cells: unlabelled competitor against ca. 20 nM biotinylated TARC, without BSA, streptavidin-PE [a]
# Procedure: as §4, §5
# [18] = target: T1, human CC chemokine receptor 4 (CCR4); assay: competition flow cytometry on DT-40-CCR4+ cells: unlabelled competitor against ca. 20 nM biotinylated TARC, with 1 % BSA, streptavidin-PE [b]
# Procedure: as §4, §5
# [19] = target: T1, human CC chemokine receptor 4 (CCR4); assay: competition flow cytometry: unlabelled competitor against a fixed amount of biotinylated MDC; cell line not named on the sheet or in the legend
binder,measurement,setting,value
"KM3060var IgG (antibody, V domains shown, Corresponds to KM3060 expressed in a different host; also called comparator KM3060var) VH: EVQLVESGGDLMKPGGSLKISCAASGFIFSNYGMSWVRQTPDMRLEWVATISSASTYSYYPDSVKGRFTISRDNAENSLYLQMNSLRSEDTGIYYCGRHSDGNFAFGYWGRGTLVTVSS VL: DVLMTQTPLSLPVSLGDQASISCRSSRNIVHINGDTYLEWYLQRPGQSPKLLIYKVSNRFSGVPDRFSGSGSGTDFTLKISRVEAEDLGVYYCFQGSLLPWTFGGGTRLEIK","Ca++ flux in CCRF-CEM cells: signal response to MDC stimulation (% of MDC in the absence of IgGs), IgG 10 µg/mL",[1],92%
same,"Ca++ flux in CCRF-CEM cells: signal response to TARC stimulation (% of TARC alone), IgG 10 µg/mL",[1],104%
same,"ADCC of CCRF-CEM cells, EC50 (mean, N=3)",[2],0.367 µg/mL
same,"ADCC of CCRF-CEM cells, EC50 (mean, N=3)",[3],0.405 µg/mL
same,Kd,[4],3.67 nM
same,Kd,[5],11.4 nM
same,Kd,[6],79.8 nM
same,IC50 (read off the curve),[7],~6 nM
same,Kd,[8],4.82 nM
"thymus and activation regulated chemokine (TARC) (ligand, UniProt Q92583 24-94, looked up, also called CCL17; biotinylated TARC) ARGTNVGRECCLEYFKGAIPLRKLKTWYQTSEDCSRDAIVFVTVQGRAICSDPNNKRVKNAVKYLQSLERS",IC50,[9],43.4 nM and 31.8 nM
same,IC50,[10],40.9 nM and 34.6 nM
same,IC50 (read off the curve),[11],~0.3 nM
"macrophage-derived chemokine (MDC) (ligand, UniProt O00626 25-93, looked up, also called CCL22; biotinylated MDC) GPYGANMEDSVCCRDYVRYRLPLRVVKHFYWTSDSCPRPGVVLLTFRDKEICADPRVPWVKMILNKLSQ",Kd,[12],0.18 nM
same,Kd,[13],0.19 nM
same,IC50,[14],10.8 nM
same,IC50 (read off the curve),[15],~60 nM
same,IC50 (read off the curve),[16],~7 nM
same,IC50 (read off the curve),[17],~30 nM
same,IC50 (read off the curve),[18],~30 nM
same,IC50 (read off the curve),[19],~20 nM
